B1: recombinant human TNFβ (Peprotech, Cat. No. 300-01B) (ligand, UniProt P01374 35-205, looked up)
chain: LPGVGLTPSAAQTARQHPKMHLAHSTLKPAAHLIGDPSKQNSLLWRANTDRAFLQDGFSLSNNSLLVPTSGIYFVYSQVVFSGKAYSPKATSSPLYLAHEVQLFSSQYPFHVPLLSSQKMVYPGLQEPWLHSMYHGAAFQLTQGDQLSTHTDGIPHLVLSPSTVFFGAFAL
B2: humanized scFv 16-22-H05-sc02 (structural graft, STR) (scFv)
scFv: MDIQMTQSPSSLSASVGDRVTIKCQASQSIFSGLAWYQQKPGKAPKLLIYGASKLASGVPSRFSGSGSGTEFTLTISGLQPADFATYYCQSYYYSSSSSDGSYAFGGGTKLTVLGGGGGSGGGGSGGGGSGGGGSEVQLVESGGGLVQPGGSLRLSCKASGIDFNNYGIGWVRQAPGKGLEWITYIYPGFAITNFANSVKGRFTISSDNSKNTVYLQMNSLRAEDTAVYYCARDPVYATSSGYFDLWGQGTLVTVSS
notes: also called 16-22-H5-sc02; 16-22-H04-sc02 [sic]
B3: humanized scFv 16-22-H05-sc04 (CDR grafted light chain, structural grafted heavy chain, CDR/STR) (scFv)
scFv: MDIQMTQSPSSLSASVGDRVTITCQASQSIFSGLAWYQQKPGKAPKLLIYGASKLASGVPSRFSGSGSGTEFTLTISGLQPADFATYYCQSYYYSSSSSDGSYAFGGGTKLTVLGGGGGSGGGGSGGGGSGGGGSEVQLVESGGGLVQPGGSLRLSCKASGIDFNNYGIGWVRQAPGKGLEWITYIYPGFAITNFANSVKGRFTISSDNSKNTVYLQMNSLRAEDTAVYYCARDPVYATSSGYFDLWGQGTLVTVSS
notes: also called 16-22-05-sc04

How the values were obtained:
[1] = target: T1, recombinant human TNFα (Peprotech, Cat. No. 300-01) (human, UniProt P01375 77-233); assay: cell-based or functional assay
[2] = target: T1, recombinant human TNFα (Peprotech, Cat. …); assay: SPR as in Example 2 under 2.1.1
[3] = target: B2; assay: competition ELISA, coated scFv, biotinylated TNFα 75 ng/ml, unlabeled TNFβ varied
Protocol: (§1) For this purpose, the scFvs were coated on a 96-well Maxisorp ELISA plate at a concentration of 1 μg/ml. […] To control precision of the response, the dose-response curves were analyzed in duplicate.

[4] = target: B3; assay: as above
Protocol: as §1

[5] = target: B2; assay: competition ELISA, coated scFv, biotinylated TNFα, unlabeled TNFβ against unlabeled TNFα
Protocol: as §1

[6] = target: B3; assay: as above
Protocol: as §1

[7] = target: T1, recombinant human TNFα (Peprotech, Cat. …); assay: cell-based or functional assay; remark: listed apart in the source
[8] = target: T2, recombinant Cynomolgus monkey TNFα (Sino Biological, Cat. No. 90018-CNAE) (Cynomolgus monkey (Macaca fascicularis), UniProt P79337 77-233); assay: cell-based or functional assay
[9] = target: T3, Rhesus monkey TNFα (R&D Systems, Cat. No. 1070-RM-025/CF) (Rhesus monkey (Macaca mulatta), UniProt P48094 77-233); assay: cell-based or functional assay
[10] = target: T2, recombinant Cynomolgus monkey TNFα …; assay: SPR, TNFα immobilized, scFv injected
Protocol: (§2) In a second step, for the best performing scFvs, Single Injection Cycle Kinetics (SiCK) were measured from a single injection cycle by simultaneously injecting six analyte samples at different concentrations into each of the eight parallel channels in the MASS-1 system. […] The apparent dissociation (k_d) and association (k_a) rate constants and the apparent dissociation equilibrium constant (K_D) were calculated with the MASS-1 analysis software (Analyzer, Sierra Sensors) using one-to-one Langmuir binding model and quality of the fits was monitored based on Chi^2, which is a measure for the quality of the curve fitting. The smaller the value for the Chi^2 the more accurate is the fitting to the one-to-one Langmuir binding model. For affinity screenings, results were deemed valid if the Chi^2 was below 10 for the concentration analyzed. In cases where several scFv concentrations were analyzed, results were deemed valid if the average Chi^2 over all the concentrations tested was below 10.

[11] = target: T3, Rhesus monkey TNFα (R&D Systems, Cat. …); assay: SPR, TNFα immobilized, scFv injected
Protocol: as §2

[12] = target: T1, recombinant human TNFα (Peprotech, Cat. …); assay: SPR (MASS-1), TNFα immobilized, scFv 45 to 1.4 nM
Protocol: In a second step, for the best performing scFvs, Single Injection Cycle Kinetics (SiCK) were measured from a single injection cycle by simultaneously injecting six analyte samples at different concentrations into each of the eight parallel channels in the MASS-1 system. […] The apparent dissociation (k_d) and association (k_a) rate constants and the apparent dissociation equilibrium constant (K_D) were calculated with the MASS-1 analysis software (Analyzer, Sierra Sensors) using one-to-one Langmuir binding model and quality of the fits was monitored based on Chi^2, which is a measure for the quality of the curve fitting.

[13] = target: T2, recombinant Cynomolgus monkey TNFα …; assay: SPR (MASS-1), cyno TNFα immobilized, scFv 45 to 1.4 nM
Protocol: as §2

[14] = target: T3, Rhesus monkey TNFα (R&D Systems, Cat. …); assay: SPR (MASS-1), Rhesus TNFα immobilized, scFv 45 to 1.4 nM
Protocol: as §2

[15] = target: B1; assay: competition ELISA, coated scFv, biotinylated TNFα, unlabeled TNFβ
Protocol: as §1

[16] = target: T1, recombinant human TNFα (Peprotech, Cat. …); assay: inhibition ELISA, blocking of TNFα binding to coated TNFRI-Fc
Excerpt: (§3) For the first inhibition ELISA, the extracellular domain of TNFRI fused to the Fc region of human IgG (R&D Systems, Cat. No. 372-RI) was coated on a 96-well Maxisorp ELISA at a concentration of […]. […] All subsequent steps were identical for both assays.

[17] = target: T1, recombinant human TNFα (Peprotech, Cat. …); assay: inhibition ELISA, blocking of TNFα binding to coated TNFRII-Fc
Excerpt: as §3

[18] = target: T1, recombinant human TNFα (Peprotech, Cat. …); assay: inhibition ELISA, blocking of TNFα binding to coated TNFRI-Fc; reference infliximab
Excerpt: as §3

[19] = target: T1, recombinant human TNFα (Peprotech, Cat. …); assay: inhibition ELISA, blocking of TNFα binding to coated TNFRII-Fc; reference infliximab

T3 sequence (P48094 77-233 limits assumed): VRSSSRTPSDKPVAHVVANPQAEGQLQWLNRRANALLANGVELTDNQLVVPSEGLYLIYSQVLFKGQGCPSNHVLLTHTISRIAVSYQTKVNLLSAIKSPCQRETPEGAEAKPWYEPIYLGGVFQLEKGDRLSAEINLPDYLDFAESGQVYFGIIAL
T1 sequence (P01375 77-233 limits assumed): as the sequence (P48094 77-233 limits assumed) above, with T44R, N72T, L138R counted along it
T2 sequence (P79337 77-233 limits assumed): as the sequence (P48094 77-233 limits assumed) above, with L37V counted along it

Binder | Potency IC50 (nM), L929 assay [1] [nM] | Kd [2] [nM] | koff [2] [s⁻¹] | kon [2] [M⁻¹ s⁻¹] | Potency in L929 assay, rel. IC50 (IC50 infliximab / IC50 scFv, ng/ml) [7] [fold] | Potency in L929 assay, rel. IC90 (IC90 infliximab / IC90 scFv, ng/ml) [7] [fold] | Species-specificity IC50 [ng/ml], L929 assay, human TNFα [7] [ng/mL] | Species-specificity IC50 [ng/ml], L929 assay, cyno TNFα [8] [ng/mL] | Species-specificity IC50 [ng/ml], L929 assay, Rhesus TNFα [9] [ng/mL] | Kd [12] [nM] | koff [12] [s⁻¹] | kon [12] [M⁻¹ s⁻¹] | binding result [15] | IC50 [16] [µg/mL] | IC50 [17] [µg/mL] | rel. IC50 (IC50 infliximab / IC50 scFv, ng/mL) [18] [fold] | rel. IC90 (IC90 infliximab / IC90 scFv, ng/mL) [18] [fold] | rel. IC50 (IC50 infliximab / IC50 scFv, ng/mL) [19] [fold] | rel. IC90 (IC90 infliximab / IC90 scFv, ng/mL) [19] [fold] | also measured
humanized IgG of clone 16-22-H05 (antibody, V domains shown, Transiently expressed in CHO S cells and purified on Protein A; also called 16-22-H5-IgG) VH: EVQLVESGGGLVQPGGSLRLSCKASGIDFNNYGIGWVRQAPGKGLEWITYIYPGFAITNFANSVKGRFTISSDNSKNTVYLQMNSLRAEDTAVYYCARDPVYATSSGYFDLWGQGTLVTVSS VL: DIQMTQSPSSLSASVGDRVTIKCQASQSIFSGLAWYQQKPGKAPKLLIYGASKLASGVPSRFSGSGSGTEFTLTISGLQPADFATYYCQSYYYSSSSSDGSYAFGGGTKLTVLG | 0.02 | 0.0417 | 7.92e-05 | 1.9e+06 |  |  |  |  |  |  |  |  |  |  |  |  |  |  |  | 
B1 |  |  |  |  |  |  |  |  |  |  |  |  |  |  |  |  |  |  |  | IC50 [3]: > 1250 µg/mL; IC50 [4]: > 1250 µg/mL; Target selectivity, rel. IC50 of TNFβ vs TNFα [5]: > 10000 fold; Target selectivity, rel. IC50 of TNFβ vs TNFα [6]: > 10000 fold
B2 |  |  |  |  | 13.1 | 12.6 | 0.6 | 2.9 | 3 | 0.045 | 4.3e-05 | 960000 | no binding (tested: 1250 µg/ml) | 0.0139 | 0.02 | 3.5 | 2.4 | 5.7 | 3.3 | fold difference in affinity against human TNFα [10]: ~5 fold; fold difference in affinity against human TNFα [11]: ~5 fold; Kd [13]: 0.2 nM; koff [13]: 9.6e-05 s⁻¹; kon [13]: 490000 M⁻¹ s⁻¹; Kd [14]: 0.23 nM; koff [14]: 0.00015 s⁻¹; kon [14]: 670000 M⁻¹ s⁻¹
16-22-H5-scFv (scFv format of Examples 3 to 7) (scFv) MDIQMTQSPSSLSASVGDRVTIKCQASQSIFSGLAWYQQKPGKAPKLLIYGASKLASGVPSRFSGSGSGTEFTLTISGLQPADFATYYCQSYYYSSSSSDGSYAFGGGTKLTVLGGGGGSGGGGSGGGGSGGGGSEVQLVESGGGLVQPGGSLRLSCKASGIDFNNYGIGWVRQAPGKGLEWITYIYPGFAITNFANSVKGRFTISSDNSKNTVYLQMNSLRAEDTAVYYCARDPVYATSSGYFDLWGQGTLVTVSS | 0.03 | 0.0379 | 3.38e-05 | 893000 |  |  |  |  |  |  |  |  |  |  |  |  |  |  |  | 
B3 |  |  |  |  | 14.6 | 13.1 | 0.5 | 3.5 | 2.9 | 0.11 | 7.1e-05 | 680000 | no binding (tested: 1250 µg/ml) | 0.0177 | 0.0326 | 2.8 | 2.1 | 3.5 | 1.5 | 
humanized single-chain diabody of clone 16-22-H05 (other, Single-chain diabody VLA-L1-VHB-L2-VLB-L3-VHA, bivalent for TNFα; L1 and L3 are G4S, L2 is (G4S)4; also called 16-22-H5-scDb; scDb) MDIQMTQSPSSLSASVGDRVTIKCQASQSIFSGLAWYQQKPGKAPKLLIYGASKLASGVPSRFSGSGSGTEFTLTISGLQPADFATYYCQSYYYSSSSSDGSYAFGGGTKLTVLGGGGGSEVQLVESGGGLVQPGGSLRLSCKASGIDFNNYGIGWVRQAPGKGLEWITYIYPGFAITNFANSVKGRFTISSDNSKNTVYLQMNSLRAEDTAVYYCARDPVYATSSGYFDLWGQGTLVTVSSGGGGSGGGGSGGGGSGGGGSDIQMTQSPSSLSASVGDRVTIKCQASQSIFSGLAWYQQKPGKAPKLLIYGASKLASGVPSRFSGSGSGTEFTLTISGLQPADFATYYCQSYYYSSSSSDGSYAFGGGTKLTVLGGGGGSEVQLVESGGGLVQPGGSLRLSCKASGIDFNNYGIGWVRQAPGKGLEWITYIYPGFAITNFANSVKGRFTISSDNSKNTVYLQMNSLRAEDTAVYYCARDPVYATSSGYFDLWGQGTLVTVSS | 0.01 | 0.0215 | 2.02e-05 | 940000 |  |  |  |  |  |  |  |  |  |  |  |  |  |  |  | 

Reference: patent US12209122
